# From US20140248295A1 (ROCKEFELLER UNIVERSITY, published 2014)
# Molecular target: T1, Recombinant sCD4 comprising the full-length extracellular domain of human CD4 (human, UniProt P01730 26-396)
# T1 construct: also called human sCD4 protein; CD4 protein
# Experiment: SPR (Biacore), antibody on CM5 chip by amine coupling, sCD4 as analyte, 25 C
# Experimental: Binding affinity analyses were performed with a T3000 instrument (GE Healthcare, Piscataway, N.J.). […] Briefly, carboxyl groups on the sensor chip surface were activated by injection of a solution containing 0.2 M EDC and 0.05 M NHS. Next, sCD4 protein in 10 mM NaOAc buffer (pH5) was flowed over the chip surface until the desired level of response units was achieved. After unreacted protein was washed out, excess active ester groups on the sensor surface were capped by the injection of 1 M ethanolamine, pH 8.0. Binding experiments were performed at 25° C. in HBS-EP buffer (GE Healthcare). Binding kinetics were measured by passing various concentrations of human sCD4 protein over the chip surface. For kinetics data analysis, the kinetic parameters ([…], association rate constant; koff, dissociation rate constant; KD, equilibrium dissociation constant) were determined by collectively fitting the overlaid sensograms using the BIAevaluation 4.1 software.
# CD4 binding affinities of these mutant antibodies were examined using surface plasmon resonance.
row,Binder,Kd [nM]
1,"Ibalizumab light chain mutant LM30E (antibody, human IgG1, kappa, V domains shown) VH: QVQLQQSGPEVVKPGASVKMSCKASGYTFTSYVIHWVRQKPGQGLDWIGYINPYNDGTDYDEKFKGKATLTSDTSTSTAYMELSSLRSEDTAVYYCAREKDNYATGAWFAYWGQGTLVTVSS VL: DIVMTQSPDSLAVSLGERVTMNCKSSQSLLYSTNNATYLAWYQQKPGQSPKLLIYWASTRESGVPDRFSGSGSGTDFTLTISSVQAEDVAVYYCQQYYSYRTFGGGTKLEIKR",1.3
2,"Ibalizumab light chain mutant LM76 (antibody, human IgG1, kappa, V domains shown) VH: QVQLQQSGPEVVKPGASVKMSCKASGYTFTSYVIHWVRQKPGQGLDWIGYINPYNDGTDYDEKFKGKATLTSDTSTSTAYMELSSLRSEDTAVYYCAREKDNYATGAWFAYWGQGTLVTVSS VL: DIVMTQSPDSLAVSLGERVTMNCKSSQSLLYSTNQKNYLAWYQQKPGQSPKLLIYWASTRESGVPDRFSGSGSGTDFTLTINATQAEDVAVYYCQQYYSYRTFGGGTKLEIKR",0.28
3,"Ibalizumab light chain mutant LM65 (antibody, human IgG1, kappa, V domains shown) VH: QVQLQQSGPEVVKPGASVKMSCKASGYTFTSYVIHWVRQKPGQGLDWIGYINPYNDGTDYDEKFKGKATLTSDTSTSTAYMELSSLRSEDTAVYYCAREKDNYATGAWFAYWGQGTLVTVSS VL: DIVMTQSPDSLAVSLGERVTMNCKSSQSLLYSTNQKNYLAWYQQKPGQSPKLLIYWASTRESGVPDRFSGNATGTDFTLTISSVQAEDVAVYYCQQYYSYRTFGGGTKLEIKR",1.5
4,"Ibalizumab light chain mutant LM67 (antibody, human IgG1, kappa, V domains shown) VH: QVQLQQSGPEVVKPGASVKMSCKASGYTFTSYVIHWVRQKPGQGLDWIGYINPYNDGTDYDEKFKGKATLTSDTSTSTAYMELSSLRSEDTAVYYCAREKDNYATGAWFAYWGQGTLVTVSS VL: DIVMTQSPDSLAVSLGERVTMNCKSSQSLLYSTNQKNYLAWYQQKPGQSPKLLIYWASTRESGVPDRFSGSGNATDFTLTISSVQAEDVAVYYCQQYYSYRTFGGGTKLEIKR",0.8
5,"Ibalizumab light chain mutant LM52 (antibody, human IgG1, kappa, V domains shown, also called iMab-LM52; Ibalizumab LM52) VH: QVQLQQSGPEVVKPGASVKMSCKASGYTFTSYVIHWVRQKPGQGLDWIGYINPYNDGTDYDEKFKGKATLTSDTSTSTAYMELSSLRSEDTAVYYCAREKDNYATGAWFAYWGQGTLVTVSS VL: DIVMTQSPDSLAVSLGERVTMNCKSSQSLLYSTNQKNYLAWYQQKPGQSPKLLIYWANSTESGVPDRFSGSGSGTDFTLTISSVQAEDVAVYYCQQYYSYRTFGGGTKLEIKR",0.35
6,"Ibalizumab light chain mutant LM60 (antibody, human IgG1, kappa, V domains shown) VH: QVQLQQSGPEVVKPGASVKMSCKASGYTFTSYVIHWVRQKPGQGLDWIGYINPYNDGTDYDEKFKGKATLTSDTSTSTAYMELSSLRSEDTAVYYCAREKDNYATGAWFAYWGQGTLVTVSS VL: DIVMTQSPDSLAVSLGERVTMNCKSSQSLLYSTNQKNYLAWYQQKPGQSPKLLIYWASTRESGVPNATSGSGSGTDFTLTISSVQAEDVAVYYCQQYYSYRTFGGGTKLEIKR",0.19
7,"Ibalizumab light chain mutant LM53 (antibody, human IgG1, kappa, V domains shown) VH: QVQLQQSGPEVVKPGASVKMSCKASGYTFTSYVIHWVRQKPGQGLDWIGYINPYNDGTDYDEKFKGKATLTSDTSTSTAYMELSSLRSEDTAVYYCAREKDNYATGAWFAYWGQGTLVTVSS VL: DIVMTQSPDSLAVSLGERVTMNCKSSQSLLYSTNQKNYLAWYQQKPGQSPKLLIYWASNATSGVPDRFSGSGSGTDFTLTISSVQAEDVAVYYCQQYYSYRTFGGGTKLEIKR",0.53
